Source: PMC4006906 (PLoS Pathogens, 2014)

Biological target: T1, A/California/04/2009 (H1CA0409) recombinant HA (Influenza A virus, A/California/04/2009 …, UniProt C3W5S1, strain)
T1 construct: source: supplied by BEI Resources
Test: ELISA
Conditions: both partners purified

B1: F10 scFv (wild type) (scFv, V domains shown)
VH: QVQLVQSGAEVKKPGSSVKVSCTSSEVTFSSFAISWVRQAPGQGLEWLGGISPMFGTPNYAQKFQGRVTITADQSTRTAYMDLRSLRSEDTAVYYCARSPSYICSGGTCVFDHWGQGTLVTVSS
VL: QPGLTQPPSVSKGLRQTATLTCTGNSNNVGNQGAAWLQQHQGHPPKLLSYRNNDRPSGISERFSASRSGNTASLTITGLQPEDEADYYCSTWDSSLSAVVFGGGTKLTVL
notes: also called F10 wt; construct #1; source: E. coli BL21 (DE3), purified (streptactin beads)
binding result: binds
